# Assay results as given in US6060451A, “Thrombin inhibitors based on the amino acid sequence of hirudin” (The National Research Council of Canada, priority 1995, dated 2000).
# B1: r-Hirudin: recombinant hirudin (HV-2), thrombin inhibitor protein of the leech Hirudo medicinalis (protein)
# chain: ITYTDCTESGQNLCLCEGSNVCGKGNKCILGSNGKGNQCVTGEGTPNPESHNNGDFEEIPEEYLQ
# Columns and labels:
# [1] = tested on: carotid artery thrombosis; assay: Ferric chloride injury-induced thrombosis model in carotid artery; conditions: rat carotid artery, FeCl3 injury; control patency time 19 ± 1 min
# Procedure: Species: Rat, male, Sprague-Dawley.
# Animals were laid on a heating pad which was maintained at 37° C. The carotid artery was approached through a midline cervical incision. Carefully blunt dissection was used to expose and isolate the vessel from the carotid sheath. […] The vessel temperature was monitored for 60 minutes after application of FeCl3. […] The site of the experiment was covered with aluminum foil in order to protect the FeCl3 from degradation by light.
# All the samples were kept on ice and centrifuged as soon as possible at 2000 Rpm for 10 min., 4° C. The plasma was analyzed in duplicate for activated partial thromboplastin time on a haemostasis analyzer (STAGO ST4™).
# From a group of four animals, two arteries were stored at -80° C. for further analysis. The others were observed under a light microscope at 40× (Leica™) for quantification of the occlusion (complete, partial, no occlusion).
# In some studies, the animal was receiving the compound by i.v. infusion instead of a bolus. In this case, the jugulars and femoral veins were cannulated with Sylastic tubing (I.D. 0.025IN). This left jugular was used for blood sampling and the right one for the infusion line. The compound was infused 30 minutes before injury and then for an other 30 minutes post-injury. Blood samples were taken at time 0, 30 and 60 minutes for APTT test and thrombin test (1 ml of blood/90 ul of citrated buffer).
# [2] = tested on: activated partial thromboplastin time; assay: Increase in APTT, bolus plus infusion model; format: in vivo, rat; set-up: Infusion Dose needed to cause 2-4 fold increase in APTT: unit not given here; conditions: intravenous bolus followed by infusion
# [3] = tested on: arteriovenous shunt occlusion; assay: Antithrombotic activity in the arteriovenous shunt model; conditions: rats, 5 min after intravenous administration
molecule,measurement,setting,value
B1,Dose to double patency time,[1],1 mg/kg
same,Bolus Dose needed to cause 2-4 fold increase in APTT,[2],0.15 mg/kg
same,Infusion Dose needed to cause 2-4 fold increase in APTT,[2],15
same,ED15 (dose which causes a prolongation of the time until occlusion of the shunt by 15 min),[3],1.42 mg/kg
